Patent US20150368311A1 (Sanofi, published 2015)
Non-standard residues stand in square brackets, D forms with d. No end group written: not given here. Ala(4-thiazolyl) = N[C@@H](Cc1cscn1)C(=O)O; Nle = CCCC[C@H](N)C(=O)O

B1: SEQ ID NO: 13 (peptide)
peptide: [Ala(4-thiazolyl)]SQGTFTSDFSKQ[Nle]ESRRAQDFIEWLLATGPESGAPPPS-OH
modifications: N-terminus assumed
SMILES: CCCC[C@H](NC(=O)[C@H](CCC(N)=O)NC(=O)[C@H](CCCCN)NC(=O)[C@H](CO)NC(=O)[C@H](Cc1ccccc1)NC(=O)[C@H](CC(=O)O)NC(=O)[C@H](CO)NC(=O)[C@@H](NC(=O)[C@H](Cc1ccccc1)NC(=O)[C@@H](NC(=O)CNC(=O)[C@H](CCC(N)=O)NC(=O)[C@H](CO)NC(=O)[C@@H](N)Cc1cscn1)[C@@H](C)O)[C@@H](C)O)C(=O)N[C@@H](CCC(=O)O)C(=O)N[C@@H](CO)C(=O)N[C@@H](CCCNC(=N)N)C(=O)N[C@@H](CCCNC(=N)N)C(=O)N[C@@H](C)C(=O)N[C@@H](CCC(N)=O)C(=O)N[C@@H](CC(=O)O)C(=O)N[C@@H](Cc1ccccc1)C(=O)N[C@H](C(=O)N[C@@H](CCC(=O)O)C(=O)N[C@@H](Cc1c[nH]c2ccccc12)C(=O)N[C@@H](CC(C)C)C(=O)N[C@@H](CC(C)C)C(=O)N[C@@H](C)C(=O)N[C@H](C(=O)NCC(=O)N1CCC[C@H]1C(=O)N[C@@H](CCC(=O)O)C(=O)N[C@@H](CO)C(=O)NCC(=O)N[C@@H](C)C(=O)N1CCC[C@H]1C(=O)N1CCC[C@H]1C(=O)N1CCC[C@H]1C(=O)N[C@@H](CO)C(=O)O)[C@@H](C)O)[C@@H](C)CC
B2: SEQ ID NO: 9 (peptide)
peptide: [Ala(4-thiazolyl)]SQGTFTSDVSKQLESRRAQEFIEWLLAGGPESGAPPPS-OH
modifications: N-terminus assumed
SMILES: CC[C@H](C)[C@H](NC(=O)[C@H](Cc1ccccc1)NC(=O)[C@H](CCC(=O)O)NC(=O)[C@H](CCC(N)=O)NC(=O)[C@H](C)NC(=O)[C@H](CCCNC(=N)N)NC(=O)[C@H](CCCNC(=N)N)NC(=O)[C@H](CO)NC(=O)[C@H](CCC(=O)O)NC(=O)[C@H](CC(C)C)NC(=O)[C@H](CCC(N)=O)NC(=O)[C@H](CCCCN)NC(=O)[C@H](CO)NC(=O)[C@@H](NC(=O)[C@H](CC(=O)O)NC(=O)[C@H](CO)NC(=O)[C@@H](NC(=O)[C@H](Cc1ccccc1)NC(=O)[C@@H](NC(=O)CNC(=O)[C@H](CCC(N)=O)NC(=O)[C@H](CO)NC(=O)[C@@H](N)Cc1cscn1)[C@@H](C)O)[C@@H](C)O)C(C)C)C(=O)N[C@@H](CCC(=O)O)C(=O)N[C@@H](Cc1c[nH]c2ccccc12)C(=O)N[C@@H](CC(C)C)C(=O)N[C@@H](CC(C)C)C(=O)N[C@@H](C)C(=O)NCC(=O)NCC(=O)N1CCC[C@H]1C(=O)N[C@@H](CCC(=O)O)C(=O)N[C@@H](CO)C(=O)NCC(=O)N[C@@H](C)C(=O)N1CCC[C@H]1C(=O)N1CCC[C@H]1C(=O)N1CCC[C@H]1C(=O)N[C@@H](CO)C(=O)O

Tests used:
[1] = molecular target: human GLP-1 receptor (human, UniProt P43220 24-463); test: cell-based or functional assay
[2] = molecular target: human glucagon receptor (human, UniProt P47871 26-477); test: cell-based or functional assay
Chain of human glucagon receptor (P47871 26-477): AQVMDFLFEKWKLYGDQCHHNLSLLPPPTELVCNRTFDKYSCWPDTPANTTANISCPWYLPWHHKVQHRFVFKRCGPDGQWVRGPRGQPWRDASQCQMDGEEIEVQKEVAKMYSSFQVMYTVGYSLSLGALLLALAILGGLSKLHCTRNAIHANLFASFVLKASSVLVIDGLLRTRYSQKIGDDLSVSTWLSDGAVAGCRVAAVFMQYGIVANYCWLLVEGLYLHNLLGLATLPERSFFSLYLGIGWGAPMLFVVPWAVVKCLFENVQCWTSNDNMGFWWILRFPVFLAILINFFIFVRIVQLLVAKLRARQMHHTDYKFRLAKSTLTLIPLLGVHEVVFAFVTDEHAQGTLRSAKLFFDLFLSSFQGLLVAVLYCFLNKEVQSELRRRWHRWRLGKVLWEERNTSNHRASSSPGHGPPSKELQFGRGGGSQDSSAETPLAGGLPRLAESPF

| Binder | EC50 hGLP-1 R [pM], cAMP formation [1] [pM] | EC50 hGLUC R [pM], cAMP formation [2] [pM] |
| --- | --- | --- |
| XSQGTFTSDISKQXESRRAQEFIEWLLATGPESGAPPPS (Tza (L-4-thiazolylalanine) at position 1; Nle at position 14; C-terminal -OH) [SEQ ID NO: 14] | 52900 | 1.2 |
| XSQGTFTSDYSKQXESRRAQEFIEWLLATGPESGAPPPS (Tza (L-4-thiazolylalanine) at position 1; Nle at position 14; C-terminal -OH) [SEQ ID NO: 17] | 6940 | 1 |
| B1 | 32100 | 3.1 |
| B2 | 12200 | 2.2 |
